# Results published in PMC4703857.
# Tests used:
# [1] = target: transferrin (Homo sapiens) (UniProt P02787); conditions: cited from earlier work
# [2] = target: Kingella denitrificans HpuA, wild type (Kingella denitrificans); assay: ITC
# [3] = target: KdHpuA Δloop-1 (Kingella denitrificans); assay: NMR titration
# [4] = target: Kingella denitrificans HpuA, wild type (Kingella denitrificans); assay: NMR titration
# [5] = target: KdHpuA T124D (Kingella denitrificans); assay: NMR titration
# [6] = target: human haemoglobin (human); assay: ITC
# [7] = target: haemoglobin:haptoglobin complex (UniProt P00738); assay: ITC
# Sequence of UniProt P02787 (P02787 20-698): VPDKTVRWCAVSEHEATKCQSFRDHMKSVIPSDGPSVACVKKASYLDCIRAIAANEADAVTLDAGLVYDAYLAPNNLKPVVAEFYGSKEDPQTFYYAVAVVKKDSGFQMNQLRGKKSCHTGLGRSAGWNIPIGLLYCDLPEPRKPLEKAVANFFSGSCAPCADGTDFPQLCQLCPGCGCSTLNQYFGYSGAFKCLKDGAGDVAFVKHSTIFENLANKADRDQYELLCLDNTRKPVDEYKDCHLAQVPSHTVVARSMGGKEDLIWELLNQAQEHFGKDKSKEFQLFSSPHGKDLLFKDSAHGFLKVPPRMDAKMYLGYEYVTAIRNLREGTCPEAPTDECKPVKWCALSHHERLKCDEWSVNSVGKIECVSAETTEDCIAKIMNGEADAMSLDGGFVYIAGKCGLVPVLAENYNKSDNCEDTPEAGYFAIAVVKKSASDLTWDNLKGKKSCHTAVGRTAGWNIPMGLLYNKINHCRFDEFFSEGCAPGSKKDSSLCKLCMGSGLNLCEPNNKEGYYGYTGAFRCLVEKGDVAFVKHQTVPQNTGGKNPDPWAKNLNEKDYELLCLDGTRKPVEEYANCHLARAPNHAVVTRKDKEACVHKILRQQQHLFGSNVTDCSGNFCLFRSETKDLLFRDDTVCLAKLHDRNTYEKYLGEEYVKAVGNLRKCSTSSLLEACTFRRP
substance,measurement,setting,value
TbpAB (from UniProt Q9K0U9),Kd,[1],0.0008 µM
human haemoglobin (complex),Kd,[2],6.1 µM
same,stoichiometry N (Hb tetramers per HpuA),[2],0.5
same,Kd,[3],150 µM
same,Kd,[4],10 µM
same,Kd,[5],16 µM
"Kingella denitrificans HpuA, wild type (natural protein)",Kd,[6],10.9 µM
same,stoichiometry N (HpuA per Hb tetramer),[6],2
same,Kd,[7],2.9 µM
same,stoichiometry N (HpuA per Hb4:Hp4 complex),[7],2
